Reference: patent US20230372552A1, “CONJUGATE OR ITS SALT COMPRISING A GASTRIN-RELEASING PEPTIDE RECEPTOR ANTAGONIST AND USES THEREOF” (ORANO MED, priority 2020, published 2023)

Experiments:
[1] = ^203Pb-conjugate biodistribution study in tumor-free immunocompetent mice
Procedure: After that, the mice were divided in 6 groups of 10, denoted as groups A, B, C, D, E and F respectively, each comprising 5 male and 5 female.
The mice of group A were sacrificed at 5 min post-dose injection; the mice of group B were sacrificed at 30 min post-dose injection; the mice of group C were sacrificed at 1 hour post-dose injection; the mice of group D were sacrificed at 4 hours post-dose injection whereas the mice of group E were sacrificed at 24 hours post-dose injection.
The mice of group F were placed in metabolic cages and their urinary and fecal excretions were collected at 4 hours, 24 hours and 48 hours post-dose injection; they were sacrificed at 48 hours post-dose injection. […]
The tubes were counted for two min. A standard consisting of 5 μL of the solution injected to the mice was also counted for each group of mice. […]
The excretions of the mice of group F were also counted.
The percent injected dose per gram, noted as % ID/g, was calculated for each organ collected (mean±standard deviation) whilst the percent injected dose, noted as % ID, was calculated for the excretions of the mice of group F (mean±standard deviation).

[2] = Comparative biodistribution, ACMP linker, tumor-free immunocompetent mice; format: in vivo, immunocompetent CD1 female mice; conditions: 4 hours post-dose injection
Procedure: The study was aimed at assessing the biodistribution […] conjugate of the invention in that it comprises a linker constituted by a 4-amino-(1-carboxymethyl)piperidinyl group, of formula: […]
5 immunocompetent CD1 female mice, 7-8 weeks old, were injected intravenously with one ^212Pb-ACMP-conjugate dose.
The mice were sacrificed at 4 hour post-dose injection.
(§1) The tubes were counted for two min. Standards consisting of 5 μL of the solutions injected to the mice were also counted. The background was automatically subtracted from the counts. The standards were also used for decay correction.

[3] = system: subcutaneous PC-3 tumors; assay: ^212Pb-conjugate biodistribution study in xenograft-bearing mice (10 μCi per 14 ng); format: in vivo, athymic nude mice
Procedure: 15 male athymic nude mice, 7-8 weeks old and weighting 27.74±1.87 g at study initiation, were injected subcutaneously, into the right flank, with 10^6 PC-3 human prostate cancer cells in 100 μL of RPMI-1640 medium/Matrigel™ (v/v: 1/1). […] Then each mouse received intravenously (into a tail vein) one ^212Pb-conjugate dose. […] The tubes were counted for two min. […] The background was automatically subtracted from the counts. The standard was also used for decay correction.

[4] = system: subcutaneous PC-3 tumors; assay: Comparative biodistribution, change of chelator (DOTAM vs DOTA), xenograft-bearing mice; format: in vivo, athymic nude mice; conditions: over the first 24 hours
Source text: The instant study was aimed at comparing the biodistribution of the conjugate of the invention, labelled with ^212Pb, in athymic nude mice bearing a human prostate cancer cell tumor with that of a conjugate also labelled with ^212Pb and only differing from the conjugate of the invention in that the chelator corresponds to DOTA (1,4,7,10-tetraazacyclododecane-1,4,7,10-tetraacetic acid) and is of formula:
30 male athymic nude mice, 7-8 weeks old and weighting 27.90±1.9 g at study initiation, were injected subcutaneously, into the right flank, with 10^6 PC-3 human prostate cancer cells in 100 μL of RPMI-1640 medium/Matrigel™ (v/v: 1/1). The tumors were let grow until they reached 200-300 mm^3.
Each mouse of groups A, B and C received intravenously one ^212Pb-DOTAM-conjugate dose whilst each mouse of groups […] received intravenously one ^212Pb-DOTA-conjugate dose.
as §1

CC(C)C[C@H](NC(=O)C[C@H](O)[C@H](CC(C)C)NC(=O)[C@H](Cc1c[nH]cn1)NC(=O)CNC(=O)[C@@H](NC(=O)[C@H](C)NC(=O)[C@H](Cc1c[nH]c2ccccc12)NC(=O)[C@H](CCC(N)=O)NC(=O)[C@@H](Cc1ccccc1)NC(=O)CCNC(=O)CCNC(=O)CN1CCN(CC(N)=O)CCN(CC(N)=O)CCN(CC(N)=O)CC1)C(C)C)C(N)=O [^203Pb-conjugate, metal not drawn]
route of elimination (urinary, fecal excretion) ([1]; excretions collected at 4, 24 and 48 hours post-dose): mainly eliminated by renal excretion | biodistribution profile ([1]; male and female mice, 5 min to 48 hours, 10 μCi per 28 ng): safe biodistribution profile

CC(C)C[C@H](NC(=O)C[C@H](O)[C@H](CC(C)C)NC(=O)[C@H](Cc1c[nH]cn1)NC(=O)CNC(=O)[C@@H](NC(=O)[C@H](C)NC(=O)[C@H](Cc1c[nH]c2ccccc12)NC(=O)[C@H](CCC(N)=O)NC(=O)[C@@H](Cc1ccccc1)NC(=O)CN1CCC(NC(=O)CN2CCN(CC(N)=O)CCN(CC(N)=O)CCN(CC(N)=O)CC2)CC1)C(C)C)C(N)=O [^212Pb-ACMP-conjugate, metal not drawn]
safety profile relative to the -β-Ala-β-Ala- linker conjugate [2]: significantly lower safety profile | uptake in kidneys relative to the -β-Ala-β-Ala- linker conjugate ([2]; 10 μCi per 4.1 ng): 5 times

CC(C)C[C@H](NC(=O)C[C@H](O)[C@H](CC(C)C)NC(=O)[C@H](Cc1c[nH]cn1)NC(=O)CNC(=O)[C@@H](NC(=O)[C@H](C)NC(=O)[C@H](Cc1c[nH]c2ccccc12)NC(=O)[C@H](CCC(N)=O)NC(=O)[C@@H](Cc1ccccc1)NC(=O)CCNC(=O)CCNC(=O)CN1CCN(CC(N)=O)CCN(CC(N)=O)CCN(CC(N)=O)CC1)C(C)C)C(N)=O [^212Pb-conjugate, metal not drawn]
tumor/blood ratio ([3]; i.v., 10 μCi per 14 ng): high | clearance ([3]; mouse, in vivo, iv): fast clearance | tumor retention versus ^212Pb-DOTA-conjugate [4]: higher
